Assays:
[1] = target: BG505 SOSIP.664 (HIV-1 (clade A, BG505)); assay: SEC
[2] = target: C.1086 NFL gp140 (Native Flexibly Linked with I559P) (HIV-1 (clade C, C.1086)); assay: SEC
[3] = target: C.1086 SOSIP gp140 (HIV-1 (clade C, C.1086)); assay: SEC
[4] = target: C.1086 UFO gp140 (Uncleaved preFusion Optimized, no disulfide linkage between A501 and T605) (HIV-1 (clade C, C.1086)); assay: SEC
[5] = target: C.1086 UFO gp140 (Uncleaved preFusion Optimized, no disulfide linkage between A501 and T605) (HIV-1 (clade C, C.1086)); assay: negative stain electron microscopy

**Q.** BG505 SOSIP.664 (natural protein) was tested. Which stoichiometry N [1] did it give?
**A.** Its stoichiometry N is 3.

**Q.** How did the stoichiometry N [2] turn out when “C.1086 NFL gp140 (Native Flexibly Linked with I559P) (natural protein)” was run?
**A.** Its stoichiometry N is 3.

**Q.** Which stoichiometry N [3] does the source give for C.1086 SOSIP gp140 (natural protein) here?
**A.** The stoichiometry N was 3.

**Q.** How did the stoichiometry N [4] turn out when “C.1086 UFO gp140 (Uncleaved preFusion Optimized, no disulfide linkage between A501 and T605) (natural protein)” was run?
**A.** The stoichiometry N was 3.

**Q.** What about the stoichiometry N [5] of the same substance?
**A.** Its stoichiometry N is 3.

Source: doi:10.1101/2021.06.15.447100
